“And” between values parts separate entries of the source, which are not always exact repeats. Identical values can stand only once.
How the values were obtained:
plasmin = target: T1, plasmin (Homo sapiens, UniProt P00747); assay: Selectivity profile and Ki, amidolytic activity of plasmin; assay type: biochemical; settings: for inhibition of plasmin: equimolar, plasmin 20 nM
T1 construct: thrombin, plasma kallikrein and plasmin were obtained; purchased Haematologic Technologies
Protocol: (§1) In each of these experiments, the molar ratio of protease active site to inhibitor was 1:1. The final concentrations of these proteases and their respective substrates were as follows: FXIIa (20 nM)/S-2302 (0.2 mM), FXIa (2.5 nM)/S-2366 (0.2 mM), FXa (10 nM)/S-2222 (1.3 mM), FIXa (200 nM)/Spectrozyme FIXa (1.3 mM), FVIIa (100 nM)/S-2288 (1.3 mM), thrombin (5 nM)/T-1637 (0.2 mM), kallikrein (5 nM)/S-2302 (0.2 mM), plasmin (20 nM)/S-2251 (0.2 mM), tPA (80 nM)/Spectrozyme tPA (0.2 mM), uPA (100 nM)/S-2288 (1.3 mM), APC (10 nM)/Spectrozyme PCa (0.2 mM) and trypsin (5 nM)/S-2222 (0.2 mM). Results shown are means±SD of at least three experiments.
(§2) DrKIn-I, with or without heparin, was screened for its inhibitory activity against trypsin and also against serine proteases in the coagulation cascade (FXIIa, FXIa, FXa, FIXa, FVIIa, thrombin and kallikrein) and in the fibrinolytic system (plasmin, tPA and uPA). The amidolytic activities of these proteases were determined in the presence or absence of equimolar concentrations of DrKIn-I using their respective chromogenic substrates.

factor Xa (FXa) = target: T2, factor Xa (FXa) (Homo sapiens, UniProt P00742); assay: Selectivity profile, amidolytic activity of FXa; assay type: biochemical
T2 construct: factor Xa (FXa); purchased Haematologic Technologies
T2 sequence (P00742 235-488 limits assumed): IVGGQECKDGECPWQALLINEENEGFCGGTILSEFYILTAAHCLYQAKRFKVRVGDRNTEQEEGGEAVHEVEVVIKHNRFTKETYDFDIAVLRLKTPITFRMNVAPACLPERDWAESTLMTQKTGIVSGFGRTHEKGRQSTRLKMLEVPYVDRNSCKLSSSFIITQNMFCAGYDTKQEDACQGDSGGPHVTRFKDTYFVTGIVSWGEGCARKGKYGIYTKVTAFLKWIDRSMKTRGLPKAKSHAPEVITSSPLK
T2 sequence (P00742 41-179 limits assumed): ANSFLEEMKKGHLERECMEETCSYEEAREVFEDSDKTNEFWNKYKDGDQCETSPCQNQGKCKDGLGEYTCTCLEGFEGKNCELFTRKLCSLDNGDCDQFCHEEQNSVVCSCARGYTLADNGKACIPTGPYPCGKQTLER
Protocol: as §1, §2

APC = APC (Homo sapiens, UniProt P04070); assay: Surface plasmon resonance, immobilized APC; assay type: binding; set-up: purchased Haematologic Technologies; settings: no heparin
Chain of APC (P04070 212-450 limits assumed): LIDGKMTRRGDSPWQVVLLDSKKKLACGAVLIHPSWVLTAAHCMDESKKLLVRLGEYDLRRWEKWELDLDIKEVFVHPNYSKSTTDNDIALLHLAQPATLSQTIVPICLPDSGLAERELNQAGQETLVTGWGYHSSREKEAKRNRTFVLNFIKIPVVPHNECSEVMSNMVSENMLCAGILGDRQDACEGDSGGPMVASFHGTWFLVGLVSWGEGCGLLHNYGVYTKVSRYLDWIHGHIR
Chain of APC (P04070 43-197 limits assumed): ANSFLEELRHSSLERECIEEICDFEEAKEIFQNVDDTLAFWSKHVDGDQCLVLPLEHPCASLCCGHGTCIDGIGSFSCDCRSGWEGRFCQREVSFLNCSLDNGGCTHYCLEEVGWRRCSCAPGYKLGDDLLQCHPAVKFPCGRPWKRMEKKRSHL
Protocol: A: 70 μg of DrKIn-I in 0.1 ml equilibrating buffer (20 mM Tris-HCl, pH 8.0) was applied to a 5 ml HiTrap Heparin column and eluted with a 50 ml gradient from 0.0-1.0 M NaCl. […] The thin lines represent the global fit to the response data. […] Results shown are means±SD of three experiments. Representative binding traces are shown.
Biacore T200 (GE Healthcare) was used for analysis. APC or PC dissolved in 10 mM acetate buffer (pH 5.0) was immobilized on a CM5 sensor chip to a response unit (RU) of 1000 with an amine coupling kit. Associations and dissociations of DrKIn-I were performed in 10 mM HEPES (N-2-hydroxyethylpiperazine-N′-2-ethanesulfonic acid; pH 7.4), 150 mM NaCl, 3 mM EDTA (ethylenediaminetetraacetic acid) and 0.05% P20 with a flow rate of 60 μl/min. […] Binding kinetics were determined by global fitting to 1:1 Langmuir binding model using the Biaevaluation software (GE Healthcare).

FVIII-deficient plasma = assay: Thrombin generation assay in FVIII-deficient plasma; assay type: biochemical; settings: 100 nM TM, 2 μg/ml heparan sulfate
Protocol: (A) Representative thrombin generation curves in FVIII-deficient and FIX-deficient plasma performed in the presence of heparan sulfate (2 μg/ml), TM (100 nM) and varying concentrations of DrKIn-I (●, 0 nM; ▪, 20 nM; ▴, 40 nM; ▾, 80 nM; ◯, 200 nM). Dashed lines represent thrombin generation in the absence of TM and DrKIn-I. (B-C) Activity in FVIII-deficient (B) and FIX-deficient (C) plasma. Left panels show ETP; right panels, peak thrombin. For comparison, dashed lines represent the activity of normal plasma containing TM and heparan sulfate in the absence of the inhibitor. Results are represented as means±SEM of at least three independent experiments.
Briefly, 80 μl of either normal plasma, protein C-deficient plasma, FVIII-deficient plasma or FIX deficient plasma containing 2 μM corn trypsin inhibitor, 2 μg/ml heparan sulfate (four disaccharide units long), 30 μM DOPC/DOPS/DOPE (60:20:20) and 100 nM recombinant TM was incubated with 20 μl of 500-fold diluted TF solution (Innovin; Dade Behring) in the absence or presence of the indicated concentrations of DrKIn-I. Following incubation for 3 minutes at 37° C., thrombin generation was initiated by the dispensation of 20 μl of 2.5 mM fluorogenic substrate (Z-Gly-Gly-Arg-AMC.HCl) dissolved in 0.15 M NaCl, 60 mg/ml BSA and 100 mM CaCl2. […] Results were evaluated using the Technothrombin TGA software (Technoclone).

[1] = test system: APC in FVIII-deficient plasma; assay: APTT-based APC resistance assay in FVIII-deficient plasma; assay type: biochemical; settings: 200 nM DrKIn-I, 40 nM APC, 2 μg/ml heparan sulfate
Protocol: APTT-based clotting times were measured in normal, FVIII-deficient and FIX-deficient plasma containing 2 μg/ml heparan sulfate in the presence or absence of 40 nM APC and the indicated concentrations of DrKIn-I. Results shown are means±S.D. of at least three experiments.
50 μl of normal plasma, FVIII-deficient plasma or FIX-deficient plasma supplemented with 2 μg/ml heparan sulfate (four disaccharide units long) was exposed to APC (40 nM) and varying concentrations of DrKIn-I (50-200 nM). 50 μl of activated partial thromboplastin (APTT) reagent (HYPHEN Biomed) was added and incubated for 1 minute at 37° C. Finally, clotting was initiated by adding 50 μl of 20 mM CaCl2. Coagulation times, which reflect the activities of APC, were recorded on a coagulometer (Hemostasis Analyzer KC-1; Sigma Diagnostics).

T1 sequence (P00747 581-810 limits assumed): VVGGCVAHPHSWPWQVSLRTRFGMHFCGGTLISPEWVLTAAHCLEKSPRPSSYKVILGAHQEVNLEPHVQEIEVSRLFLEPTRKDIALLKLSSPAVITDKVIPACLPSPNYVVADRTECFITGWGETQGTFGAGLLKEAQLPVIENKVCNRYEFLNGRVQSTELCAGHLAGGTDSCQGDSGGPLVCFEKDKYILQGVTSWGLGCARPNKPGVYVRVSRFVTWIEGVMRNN
T1 sequence (P00747 97-580 limits assumed): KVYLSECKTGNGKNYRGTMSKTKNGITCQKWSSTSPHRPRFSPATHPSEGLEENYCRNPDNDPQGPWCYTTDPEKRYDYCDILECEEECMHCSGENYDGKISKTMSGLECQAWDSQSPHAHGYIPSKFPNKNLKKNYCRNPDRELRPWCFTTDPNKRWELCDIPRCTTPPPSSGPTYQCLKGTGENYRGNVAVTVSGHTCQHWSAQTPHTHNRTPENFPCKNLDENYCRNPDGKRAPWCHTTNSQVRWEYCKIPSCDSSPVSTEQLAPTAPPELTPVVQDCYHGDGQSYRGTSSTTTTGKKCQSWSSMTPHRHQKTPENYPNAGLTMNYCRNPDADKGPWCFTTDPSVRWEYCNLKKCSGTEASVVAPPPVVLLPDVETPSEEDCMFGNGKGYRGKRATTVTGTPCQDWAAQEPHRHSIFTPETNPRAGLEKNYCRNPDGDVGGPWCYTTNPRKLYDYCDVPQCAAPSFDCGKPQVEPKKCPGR

DrKIn-I (CGGNDNNFETRKKCRQTCGAPRKGRPT)
inhibition of plasmin (plasmin; in the absence of heparin): ~20% | inhibition of plasmin (plasmin; in the presence of heparin (0.1 U/ml)): ~70% | Ki (plasmin; in the presence of heparin, read-out: Ki for plasmin inhibition): 1.56 ± 0.09 nM | inhibitory activity against factor Xa (factor Xa (FXa)): no inhibitory activities | association rate constant (APC; 1:1 Langmuir model): 1.3±0.8×10^7 M^−1 s^−1 and ~1.3×10^7 M^−1 s^−1 and 1.7×10^7 M^−1 s^−1 | dissociation rate constant (APC; 1:1 Langmuir model): 3.4±2.2×10^−2 s^−1 | Kd (APC; 25° C.): ~2.6 nM | DrKIn-I concentration correcting ETP to normal levels (FVIII-deficient plasma): 60 nM | DrKIn-I concentration correcting peak thrombin to normal levels (FVIII-deficient plasma): 130 nM | clotting time [1]: almost completely restored the clotting time to that observed in the absence of APC

Reference: patent US9206246B2, “Heparin/heparan sulfate-dependent inhibitors of activated protein C and uses thereof in treating hemophilic disorders” (Academia Sinica, priority 2012, dated 2015)
